# Data as given in patent US20250019438A1 (AstraZeneca / MedImmune, published 2025).
# Changes are numbered by the printed parent chain.
# B1: EGFR-CD3 DuetMab with the parental anti-CD3 arm (bispecific antibody, part only; not given: anti-EGFR arm, constant regions, V domains shown, not shown: another chain or arm of the molecule; a dimerising Fc or GST; small tags and cut ends)
# VH: QVQLVESGGGVVQPGRSLRLSCAASGFTFTKAWMHWVRQAPGKQLEWVAQIKDKSNSYATYYADSVKGRFTISRDDSKNTLYLQMNSLRAEDTAVYYCRGVYYALSPFDYWGQGTLVTVSS
# VL: DIVMTQTPLSLSVTPGQPASISCKSSQSLVHNNANTYLSWYLQKPGQSPQSLIYKVSNRFSGVPDRFSGSGSGTDFTLKISRVEAEDVGVYYCGQGTQYPFTFGSGTKVEIK
# B2: EGFR-CD3 DuetMab with anti-CD3 variant AZ Vκ 26 + AZ VH E75 (bispecific antibody, part only; not given: anti-EGFR arm, constant regions, V domains shown, not shown: another chain or arm of the molecule; a dimerising Fc or GST; small tags and cut ends)
# VH: EVQLVESGGALVKPGGSLRLSCAASGFTFTEAWMHWVRQAPGKQLEWVAQIKDRSQTYATYYAESVKGRFTISRDDSKNTLYLQMNSLKTEDTAVYYCRGVYYANAPFDYWGQGTLVTVSS
# VL: B1 VL with T7S, S12P, Q17E, K24R, N33T, A34G, F60A, Y99A, T102S
# B3: EGFR-CD3 DuetMab with anti-CD3 variant AZ Vκ 26 + AZ VH E79 (bispecific antibody, part only; not given: anti-EGFR arm, constant regions, V domains shown, not shown: another chain or arm of the molecule; a dimerising Fc or GST; small tags and cut ends)
# VH: B2 VH with N105V, A106T
# VL: B1 VL with T7S, S12P, Q17E, K24R, N33T, A34G, F60A, Y99A, T102S
# B4: EGFR-CD3 DuetMab with anti-CD3 variant AZ Vκ 26 + AZ VH SN82 (bispecific antibody, part only; not given: anti-EGFR arm, constant regions, V domains shown, not shown: another chain or arm of the molecule; a dimerising Fc or GST; small tags and cut ends)
# VH: B2 VH with T30S, E31N, A106T
# VL: B1 VL with T7S, S12P, Q17E, K24R, N33T, A34G, F60A, Y99A, T102S
# B5: EGFR-CD3 DuetMab with anti-CD3 variant AZ Vκ 26 + AZ VH E82 (bispecific antibody, part only; not given: anti-EGFR arm, constant regions, V domains shown, not shown: another chain or arm of the molecule; a dimerising Fc or GST; small tags and cut ends)
# VH: B2 VH with A106T
# VL: B1 VL with T7S, S12P, Q17E, K24R, N33T, A34G, F60A, Y99A, T102S
# B6: EGFR-CD3 DuetMab with anti-CD3 variant AZ Vκ 29 + AZ VH R79 (bispecific antibody, part only; not given: anti-EGFR arm, constant regions, V domains shown, not shown: another chain or arm of the molecule; a dimerising Fc or GST; small tags and cut ends)
# VH: B2 VH with E31R, N105V, A106T
# VL: B1 VL with T7S, S12P, Q17E, K24R, N33T, A34G, F60A, Y99F
# B7: EGFR-CD3 DuetMab with anti-CD3 variant AZ Vκ 29 + AZ VH R82 (bispecific antibody, part only; not given: anti-EGFR arm, constant regions, V domains shown, not shown: another chain or arm of the molecule; a dimerising Fc or GST; small tags and cut ends)
# VH: B2 VH with E31R, A106T
# VL: B1 VL with T7S, S12P, Q17E, K24R, N33T, A34G, F60A, Y99F
# B8: EGFR-CD3 DuetMab with anti-CD3 variant AZ Vκ 29 + AZ VH R75 (bispecific antibody, part only; not given: anti-EGFR arm, constant regions, V domains shown, not shown: another chain or arm of the molecule; a dimerising Fc or GST; small tags and cut ends)
# VH: B2 VH with E31R
# VL: B1 VL with T7S, S12P, Q17E, K24R, N33T, A34G, F60A, Y99F
# B9: AZ Vκ+AZ VH IgG1-TM (antibody, V domains shown)
# VH: B1 VH
# VL: B1 VL
# notes: also called parental AZ Vκ+AZ VH IgG1-TM; parental anti-CD3 antibody
# B10: AZ Vκ 7 + AZ VH 21 (antibody, IgG1, V domains shown)
# VH: B2 VH with T30S, E31N, W33Y, T57S, N105L, A106S
# VL: B1 VL with T7S, S12P, Q17E, K24R, N33T, A34G, F60A
# notes: member of the group m34
# B11: AZ Vκ 7 + AZ VH 13 (antibody, IgG1, V domains shown)
# VH: B2 VH with E31K, W33Y, T57S, N105L, A106S
# VL: B1 VL with T7S, S12P, Q17E, K24R, N33T, A34G, F60A
# notes: member of the group m34
# Molecular target: Biotinylated recombinant human CD3εδ (Acro Biosystems, CDD-H82W6) (human) (UniProt P07766)
# Sequence (P07766 23-126, stated change not applied, chain 1 of 2): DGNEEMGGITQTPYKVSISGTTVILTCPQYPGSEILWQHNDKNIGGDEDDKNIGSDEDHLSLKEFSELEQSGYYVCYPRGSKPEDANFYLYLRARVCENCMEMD
# Sequence (P04234 22-105, stated change not applied, chain 2 of 2, further chain): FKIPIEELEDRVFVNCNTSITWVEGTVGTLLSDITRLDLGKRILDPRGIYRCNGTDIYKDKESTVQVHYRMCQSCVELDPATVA
# Experiment: Octet BLI, biotinylated CD3εδ on streptavidin sensors, 1:1 model
Binder,Kd [nM],koff [s⁻¹],kon [M⁻¹ s⁻¹]
B1,24.3,0.00105,43300
B2,2280,0.0172,7540
B3,4660,0.0511,11000
B4,1710,0.0212,12400
B5,3920,0.0287,7330
B6,878,0.0487,55500
B7,595,0.0231,38800
B8,224,0.0119,53300

# Molecular target: T1, Cynomolgus monkey CD3 on HSC-F cells (cynomolgus monkey, UniProt Q95LI5 22-198; Q95LI8 22-171; Q95LI7 23-181)
# T1 construct: whole, on cells; CD3 complex; also called cyCD3+; cynomolgus CD3+ cells
# T1 sequence (Q95LI5 22-198, chain 1 of 3): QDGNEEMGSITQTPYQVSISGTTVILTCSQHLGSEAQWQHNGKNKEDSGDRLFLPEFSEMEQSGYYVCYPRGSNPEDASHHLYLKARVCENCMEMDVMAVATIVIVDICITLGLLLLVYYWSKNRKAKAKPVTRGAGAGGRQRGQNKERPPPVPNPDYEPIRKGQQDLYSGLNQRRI
# T1 sequence (Q95LI8 22-171, chain 2 of 3): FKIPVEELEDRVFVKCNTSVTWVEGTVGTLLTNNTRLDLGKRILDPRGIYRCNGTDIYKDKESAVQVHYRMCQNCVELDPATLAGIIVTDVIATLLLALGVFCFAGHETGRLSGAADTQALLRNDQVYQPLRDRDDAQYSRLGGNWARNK
# T1 sequence (Q95LI7 23-181, chain 3 of 3): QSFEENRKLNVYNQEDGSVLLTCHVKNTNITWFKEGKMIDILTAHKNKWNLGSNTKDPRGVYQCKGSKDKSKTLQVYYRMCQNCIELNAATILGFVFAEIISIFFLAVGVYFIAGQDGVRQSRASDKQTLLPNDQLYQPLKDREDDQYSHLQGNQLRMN
# Experiment: flow cytometry on HSC-F cells (cyCD3+), detection with Alexa Fluor 647 goat F(ab')2 anti-human IgG Fcγ
# Method: (§1) Flow Cytometry was used to determine specific cell surface antigen binding. The human leukemia T cell lines HPB-ALL, Jurkat, Jurkat TCR KO, and cynomolgus T cell line HSC-F were used to assess human CD3 and cynomolgus CD3 binding, respectively. Briefly, 1×10⁵ cells were suspended in FACS buffer (1×PBS, pH 7.2 supplemented with 2% heat-inactivated FBS, 0.1% sodium azide and 2 mM EDTA) and placed into each well of a round-bottom 96-well plate. Antibodies were diluted to various concentrations using FACS buffer and added to the cells. Antibodies and cells were washed twice with FACS buffer after incubation at 4° C. for 30 min. Cell surface antigen binding of antibodies was detected with Alexa Fluor 647-conjugated goat F(ab′)₂ fragment specifically against human IgG Fcγ fragment. Data was collected using a BD FACSymphony A3 Cell Analyzer (BD Biosciences). Data was analyzed with FlowJo v10.6.1 and plotted using GraphPad Prism v9.0.0.
row,Binder,EC50 (read off the curve) [nM]
1,B9,~40

# Molecular target: T2, Human CD3 on HPB-ALL and Jurkat cells (human, UniProt P07766 23-207; P04234 22-171; P09693 23-182)
# T2 construct: whole, on cells; also called hCD3+; human CD3+ cells
# T2 sequence (P07766 23-207, chain 1 of 3): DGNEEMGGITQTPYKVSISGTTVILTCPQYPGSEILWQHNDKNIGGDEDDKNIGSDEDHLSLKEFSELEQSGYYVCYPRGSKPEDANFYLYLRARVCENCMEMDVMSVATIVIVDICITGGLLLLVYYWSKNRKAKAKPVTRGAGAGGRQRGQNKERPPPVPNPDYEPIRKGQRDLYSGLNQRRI
# T2 sequence (P04234 22-171, chain 2 of 3): as the sequence (Q95LI8 22-171, chain 2 of 3) above, with V5I, K15N, V20I, T32S, N33D, N34I, A64T, N74S, L83V, R141H counted along it
# T2 sequence (P09693 23-182, chain 3 of 3): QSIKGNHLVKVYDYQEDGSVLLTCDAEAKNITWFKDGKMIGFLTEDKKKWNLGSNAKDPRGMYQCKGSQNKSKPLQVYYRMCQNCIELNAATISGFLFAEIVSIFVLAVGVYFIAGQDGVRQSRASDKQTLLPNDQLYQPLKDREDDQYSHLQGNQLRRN
# Experiment: flow cytometry on HPB-ALL cells (hCD3+), detection with Alexa Fluor 647 goat F(ab')2 anti-human IgG Fcγ
# Method: as §1
row,Binder,binding result
1,B10,binds
2,B11,binds

# Molecular target: T1, Cynomolgus monkey CD3 on HSC-F cells
# Experiment: flow cytometry on HSC-F cells (cyCD3++), detection with Alexa Fluor 647 goat F(ab')2 anti-human IgG Fcγ
# Method: as §1
Binder,EC50 (read off the curve) [nM],binding result
B9,~40,
B10,,binds
B11,,binds

# Molecular target: T2, Human CD3 on HPB-ALL and Jurkat cells
# Experiment: flow cytometry on HPB-ALL cells (hCD3++), EGFR-CD3 DuetMab, detection with Alexa Fluor 647 goat F(ab')2 anti-human IgG Fcγ
row,Binder,EC50 (read off the curve) [nM]
1,B1,50
